Laboratory results reported in patent US20190315886A1 (JIANGSU HENGRUI MEDICINE, published 2019).

Experiments:
[1] = molecular target: T1, human thrombin with His tag (human, UniProt P00734 328-622); assay: binding ELISA, biotinylated His-tagged human thrombin on streptavidin plate
From the text: The binding ability of anti-thrombin antibody was detected by ELISA assay with the antibodies and the human thrombin with His tag. Thrombin protein with His tag labeled with the biotin-labeling kit (Dongren Chemicals, Cat No. LK03) was immobilized into a 96-well microtiter plate by binding to streptavidin coated on the microtiter plate, the strength of the signal after the addition of the antibody was used to determine the binding activity of the antibody to thrombin. The specific experimental method is as follows.
Streptavidin (Sigma, Cat No. S4762-5MG) was diluted to a concentration of 5 μg/ml with PBS buffer, pH 7.4 (Sigma, Cat No. P4417-100TAB) and added to a 96-well plate at a volume of 50 μl/well, and then, the plate was incubated in the incubator at 37° C. for 2 hours. After discarding the liquid, the plates were blocked with 200 μl/well of blocking solution containing 5% skim milk (Guangming skim milk) in PBS, and incubated in the incubator at 37° C. for 2.5 hours or overnight at 4° C. (16-18 hours). After blocking, the blocking solution was discarded and the plate was washed 5 times with PB ST buffer (PBS containing 0.05% tweeen-20, pH7.4). Human thrombin protein with His tag labeled with the biotin-labeling (SEQ ID NO: 2, as shown by the double underline) was diluted with sample dilution (PBS containing 1% BSA, PH7.4) to 50 μg/ml and was added to each well, 50 μl/well. Then the plate was incubated in the incubator at 37° C. for 2 h or overnight. After incubation, the blocking solution in the plate was discarded, and the plate was washed with PBST 6 times, and then 50 μl/well of various concentrations of the test antibodies diluted with sample dilution was added to each well, and the plate was incubated at 37° C. for 2 h. The plates were washed 5 times with PBST after incubation, and 100 μl/well of goat anti-human secondary antibody (Jackson Immuno Research, Cat No. 109-035-003) labeled with HRP was added to each well, diluted in sample dilution, and the plate was incubated at 37° C. for 1 h. After washing the plates 5 times with PBST, 50 μl/well of TMB chromogenic substrate (KPL, Cat No. 52-00-03) was added to each well, and incubated at room temperature for 10-15 min. The reaction was stopped by the addition of 50 μl/well 1M H₂SO₄ to each well.

[2] = molecular target: T2, human prothrombin with His tag (human, UniProt P00734 44-622); assay: Biacore; reference h1601-008
T2 construct: also called h-prothrombin-his

[3] = molecular target: T1, human thrombin with His tag; assay: Biacore; reference h1601-008
[4] = molecular target: T2, human prothrombin with His tag; assay: Biacore
[5] = molecular target: T1, human thrombin with His tag; assay: Biacore
[6] = molecular target: T1, human thrombin with His tag; assay: Biacore; ratio of KD on pro-thrombin to KD on thrombin
[7] = molecular target: T1, human thrombin with His tag; assay: biacore; selectivity thrombin over pro-thrombin, reference h1601-008
[8] = molecular target: T1, human thrombin with His tag; assay: BIAcore, antibody captured by anti-human antibody
[9] = molecular target: T2, human prothrombin with His tag; assay: BIAcore, antibody captured by anti-human antibody
[10] = molecular target: T2, human prothrombin with His tag; assay: binding ELISA
[11] = molecular target: T3, mouse thrombin with His tag (mouse, UniProt P19221 325-618, limits assumed); assay: binding ELISA
T3 construct: also called m-thrombin-His; murine thrombin

[12] = molecular target: T1, human thrombin with His tag; assay: binding ELISA
[13] = molecular target: T2, human prothrombin with His tag; assay: BIAcore
[14] = molecular target: T1, human thrombin with His tag; assay: BIAcore

Row | Binder | EC50 [1] | Fold of Affinity relative to h1601-008 [2] | Fold of Affinity relative to h1601-008 [3] | Kd [4] | Kd [5] | Selective activity [6] | other results
1 | humanized antibody h1601-005 (antibody, human IgG4 S228P, kappa, V domains shown) VH: EVQLVESGGGLVQPGGSLRLSCAASGFTFSDYYMAWVRQAPGKGLEWVSNINSDGSSTYYLDSLKSRFTISRDNSKNTLYLQMNSLKAEDTAVYYCARDHYHGNSYVFDYWGQGTTVTVSS VL: DIQMTQSPSSLSASVGDRVTITCKASEDIYNRLAWYQQKPGKAPKLLISGATSLETGVPSRFSGSGSGKDFTLTISSLQPEDFATYYCQQYWSTPWTFGGGTKVEIKR | 5.8 nM |  |  |  |  |  | 
2 | aTM-2 (antibody, V domains shown) VH: EVQLVESGGGLVQPGGSLRLSCAASGFTFSDYYMAWVRQAPGKGLEWVSNINSDGSSTYYLDSLKSRFTISRDNSKNTLYLQMNSLKAEDTAVYYCARDHYLGNSYVFDSWGQGTTVTVSS VL: DIQMTQSPSSLSASVGDRVTITCKASEDIYNRLAWYQQKPGKAPRLIISGATSLETGVPSRFSGSGSGKDYTLTISSLQPEDFATYYCQQYWSTPWTFGGGTKVEIK |  | 62.4 fold | 86.5 fold | 1.23 nM | 0.0899 nM | 13.7 | 
3 | aTM-4 (antibody, V domains shown) VH: EVQLVESGGGLVQPGGSLRLSCAASGFTFSDYYMAWVRQAPGKGLEWVSNINSDGSSTYYLDSLKSRFTISRDNSKNTLYLQMNSLKAEDTAVYYCARDHYLGNSYVFDLWGQGTTVTVSS VL: DIQMTQSPSSLSASVGDRVTITCKASEDIYNRLAWYQQKPGKAPRLIISGATSLETGVPSRFSGSGSGKDYTLTISSLQPEDFATYYCQQYWSTPWTFGGGTKVEIK |  | 29.3 fold | 54 fold | 2.62 nM | 0.144 nM | 18.2 | 
4 | aTM-1 (antibody, V domains shown) VH: EVQLVESGGGLVQPGGSLRLSCAASGFTFSDYYMAWVRQAPGKGLEWVSNINSDGSSTYYLDSLKSRFTISRDNSKNTLYLQMNSLKAEDTAVYYCARDHYIGASYVFDYWGQGTTVTVSS VL: DIQMTQSPSSLSASVGDRVTITCKASEDIYNRLAWYQQKPGKAPRLIISGATSLETGVPSRFSGSGSGKDYTLTISSLQPEDFATYYCQQYWSTPWTFGGGTKVEIK |  | 22.1 fold | 40.7 fold | 3.48 nM | 0.191 nM | 18.2 | fold increase of selectivity (against h1601-008) [7]: 1.8 times
5 | aTM-7 (antibody, V domains shown) VH: EVQLVESGGGLVQPGGSLRLSCAASGFTFSDYYMAWVRQAPGKGLEWVSNINSDGSSTYYLDSLKSRFTISRDNSKNTLYLQMNSLKAEDTAVYYCARDHYMGNSYVFDTWGQGTTVTVSS VL: DIQMTQSPSSLSASVGDRVTITCKASEDIYNRLAWYQQKPGKAPRLIISGATSLETGVPSRFSGSGSGKDYTLTISSLQPEDFATYYCQQYWSTPWTFGGGTKVEIK |  | 37.5 fold | 45.2 fold | 2.05 nM | 0.172 nM | 11.9 | 
6 | chimeric antibody CH-1601 (antibody, human IgG4 S228P, kappa, V domains shown) VH: EVKLVESEGGLVQPGSSLKLSCTASGFTFSDYYMAWVRQVPEKGLEWVANINSDGSSTYYLDSLKSRFIISRDNAKNILYLQMSSLKSEDTATYYCARDHYHGNSYVFDYWGQGTTLTVSS VL: DIQMTQSSSSFSVSRGNRVTITCKASEDIYNRLAWYQQKPGNAPRLIISGATSLETGVPSRFSGSGSGKDYTLSITSLQTEDVGTYYCQQYWSTPWTFGGGTKLEIKR |  |  |  |  |  |  | EC50 [10]: 42.6 nM; binding result [11]: no binding; EC50 [12]: 0.71 nM; Kd [13]: 78.7 nM; Kd [14]: 2.27 nM

Continued, in another order:

Row | EC50 [1] | Fold of Affinity relative to h1601-008 [2] | Fold of Affinity relative to h1601-008 [3] | Kd [4] | Kd [5] | Selective activity [6] | Binder | other results
7 | 1.49 nM |  |  |  |  |  | humanized antibody h1601-009 (antibody, human IgG4 S228P, kappa, V domains shown) VH: EVKLVESGGGLVQPGGSLRLSCAASGFTFSDYYMAWVRQAPGKGLEWVANINSDGSSTYYLDSLKSRFTISRDNSKNTLYLQMNSLKAEDTAVYYCARDHYHGNSYVFDYWGQGTTVTVSS VL: DIQMTQSPSSLSASVGDRVTITCKASEDIYNRLAWYQQKPGKAPRLIISGATSLETGVPSRFSGSGSGKDYTLTISSLQPEDFATYYCQQYWSTPWTFGGGTKVEIKR | Kd [8]: 8.17 nM
8 | 1.54 nM | 1 fold | 1 fold | 76.8 nM | 7.78 nM | 9.9 | humanized antibody h1601-008 (antibody, human IgG4 S228P, kappa, V domains shown) VH: EVQLVESGGGLVQPGGSLRLSCAASGFTFSDYYMAWVRQAPGKGLEWVSNINSDGSSTYYLDSLKSRFTISRDNSKNTLYLQMNSLKAEDTAVYYCARDHYHGNSYVFDYWGQGTTVTVSS VL: DIQMTQSPSSLSASVGDRVTITCKASEDIYNRLAWYQQKPGKAPRLIISGATSLETGVPSRFSGSGSGKDYTLTISSLQPEDFATYYCQQYWSTPWTFGGGTKVEIKR | Kd [9]: 94.3 nM; Kd [8]: 8.97 nM
9 | 4.45 nM |  |  |  |  |  | humanized antibody h1601-006 (antibody, human IgG4 S228P, kappa, V domains shown) VH: EVKLVESGGGLVQPGGSLRLSCAASGFTFSDYYMAWVRQAPGKGLEWVANINSDGSSTYYLDSLKSRFTISRDNSKNTLYLQMNSLKAEDTAVYYCARDHYHGNSYVFDYWGQGTTVTVSS VL: DIQMTQSPSSLSASVGDRVTITCKASEDIYNRLAWYQQKPGKAPKLLISGATSLETGVPSRFSGSGSGKDFTLTISSLQPEDFATYYCQQYWSTPWTFGGGTKVEIKR | 
